Assay: soluble on expression in E. coli; label from the status in PepcDB or PDB records

MGSDKIHHHHHHMSEQNWTDTGRFDNKAAEWDANAIRAALADAVARAIIAHMPVGKPANALEFGCGTGLVTTRIAPHCLQLTAVDSSREMLRMLGEKIAASAIANVTPLHLDFSRPEEAAGLDRDYDFVYSSMTLHHIPDTASFLRELIGHMSPGGALAIADLDAEDGLFHNDATEKVHHGFDRTELQALLESAGFAGVSFMTAHIIEKKNREGNLKNYPVFLVTAVKPKA
soluble on expression in E. coli: not soluble

RADTLIYMTVNPKTNTTDMVSIPRDTYTKIIGKGTMDKINHSYAFGGTQMTVDTVENFLDVPVDYFVKVNMESFRDVVDTLGGITVNSTFAFSYDGYSFGKGEITLNGKEALAYTRMRKEDPRGDFGRQDRQRQVIQGIINKGAN
soluble on expression in E. coli: not soluble

MKIKIFIITSLIILTSVSCRRNVFNPSIPNRTQFVEDPIANLSIPSKDAAVEVIPVESIYKTGQTSLIYNWYIHFFDFNGKYYLTARDKCSYDSANKTMIITNNSYYNLLEIDVNDNFYMKEIRTNIDSSIPDDNRIINAFTKIVNGEAYTNADTIFIQDGGKYYSSKNIITWTEISQIPSDASKKEATDQYKIPITAQNGKTYTYVYASGAREFSISRLSDRMKQLAKRLETKFDFKEEDFNNHHMFDIGLNENGSSNPDFRLNPTNYLNNDTNYVYMGATDAAGQLWLLPVKKNGKDYLVRLPEHGGPELYIISDLQNDMNTYQTKAQESLTKALSLAASGGDTSAIEDACYESILNDANYKANKYFLDVIDKMGAKVNFGTTVYATSSKPITHYVIDIVDIQKD
soluble on expression in E. coli: not soluble

MNNWKLILPLMMSGSLIACTSTQTTTEPVEPETPKVEQPVTVEPEVKPEVEPKPEVKPKPETKPEKKPEPKPEKPVKVQKTPDGMLILGSEEWVYVPAIDQTFKARVDTGATTSSISATEIVPFERDGKDWVQFKIDINGKTSKEFKVPVERWAKVKQSSSDEVDKRAVVVAYIQVGDYKEKTEFTLADRDHMKFPILLGRSFFRDIAVVDVSKKYIQDKPTKSTKK
soluble on expression in E. coli: not soluble

MTAAMYDLMDYDEVLEKFDPVMGLEVHVELATETKMFSAPSAHFGAEPNSNVDPVSLGLPGALPVVNAKGVEWAIKIGLALNCKIAESSRFARKNYFYPDQPKNYQISQYDEPIAYDGYLDVVLDDGTPWRVEIERAHMEEDTGKLTHLGGADGRIHGATASLVDCNRAGIPLIEIVTKPIEGAGERAPEVARAYVGALRDLVKALGVSDARMDQGSMRCDANVSLRPVGTVEFGTRTETKNINSLKSVEQAVRYEMQRQAQVLEDGGEIVQETRHYQETDGSTSKGRPKETAEDYRYFNDPDLPPVIAPKEWVEEIRATLPELPWIRRARIQKEWGLKDEEMRDLVNAGALDLIVETVEAGASASEARSWWVAYLSQKANESGVELDSLSITPQQVARVAALVKEGKLTNKLARQAVDGVLAGEGDVDEVVAARGLEVVRDDGAIEKAVDEALAANPDIVEKYKAGNTKVTGAIVGAVMKATRGKADPAQVNKLIAEKLA
soluble on expression in E. coli: not soluble

MGSDKIHHHHHHMRVEIIFLGCGGGRWATITQKKATGGFRIHTNELRMHVDPGPGAIVRLNELKISPWRTNALFISHCHPDHYTDGEIIVEAITQGMTKKRGVFLGSLSVVEGFGEYEYVVSKYHQSKLEEVRVLYPGDSAELYDTTIKATHTKHGDPFGIGFRLSTIYGDIGYTSDTEFIPQLIEDFDGVRILIANIVRKKNERIKGHLCSNDAIDLINSMNKKPELLIMNHMGVKMTNPQIEAEYISQNTGIEVIPARLGLKVELLNGKYKYQLIK
soluble on expression in E. coli: not soluble

MGSTKSRPLRDANGTPKFRHESIACVFRVHPQQGVDVLTVIRSRPPYADMSALPSGALETNEMLKDACLRHLSLSGVHPSMVSHIEQLDTRSAIDRDPYDRTIATAHLCLIPWDIDPSVTNGSFTPLVDLDELAFDHKNIIEQGLYRLRAKLSYSNIGFALAPRLFTISDLAKTYSHVLTYNVSPTNLQRILTRRNQLQPTTARAIGSGRPARLFTFTTDRLEITDPFATLKPTESRKCKS
soluble on expression in E. coli: not soluble

MTQPLRQYREKRDFRATAEPAGAARRPRAAARASEGLSFVIQRHQARRLHYDFRLEIDGVLVSWAVPKGPSRDPSVKRLAVHVEDHPLEYGGFSGDIPKGQYGAGHVDIWDSGVWIPRGDPRQGLRRGKLHFALRGRRLAGDWVLVRMSGEQDQWLLRKEDDEALEHHHHHH
soluble on expression in E. coli: soluble

MSLVIITDATEADLDQIFQIETESFEDPYPYSLLRAYLFLANKLYLVAKQREKVVGYIIGIIQYGYRGHIVSIAVEPIYRKQGIGAKLLNEIEERFKLNGARYSYLEVNTNNLSAISFYRANGYLIMYVRKNYYGRDKHAFVMVKNLYEGHHHHHH
soluble on expression in E. coli: soluble

MARDGAVYACQSCGAVQTKWSGQCSACQSWNTLVEEVSAKPPGALSATKATRVRGLQFTGLESETAPPPRILTGVDEFDRVCGGGVVPGSALLIGGDPGVGKSTLLLQVCASAAARGVSCAYISGEEAVEQIRGRADRMGLAKANVSLAAETALRDILDGLKRDNFDLVVIDSIQTMWSDAHEAGPGTVTQVRACATELVRLAKKKGVAILLVGHVTKDGQIAGPRVVEHLVDAVLSFEGERGYPFRILRGAKNRFGATDEIGVFEMGDVGLREVKNPSALFLNEGGERAAGAAVFAGIEGSRPVLVEFQALVAPSAYGTPRRAVVGWDSGRLAMVLAVLEARCGLGFGDKDVYLNVAGGLRITEPAADLAAAAALASSALDVALPQDCVVFGELSLSGEVRPVSRMETRLKEAAKLGFGRALGPLAGLPEGGGALPVAGVARLTDAVRRIGDEIWTSLTLEHHHHHH
soluble on expression in E. coli: not soluble

MSLTKAYTIVIKLGSSSLVDESTKEPKLSIMTLIVETVTNLKRMGHKVIIVSSGGIAVGLDALNIPHKPKQLSEVQAIAAVGQGRLIARWNMLFSQYGEQTAQILLTRNDILRWNQYNNARNTINELLAMGVIPIVNENDTLSISEIEFGDNDTLSAITAALVGADFLFLLTDVDCLYTDNPRTNPDARPIVLVPELSEGLPGVNTSSGSGSEVGTGGMRTKLIAADLASNAGIETIVMKSDRPEYVPKIVDYIQHHFRPPRHIGNGTQQQFLDLQDTELEQLRRYDVPMHTKFLANDNKHKLKNREFWILHGLITKGAIIIDENSYDKLLSKDMASLTPNAVIEVRDNFHELECVDLKIGQRLPNGELDISKPIQSVGCVRSNYTSLELAKIKGLPSEKIHDVLGYSVSEYVAHRENIAFPPQFEGHHHHHH
soluble on expression in E. coli: not soluble

MGSDKIHHHHHHMREQLDQVGSGGVTGATGLLGNNLVRELVARGYTVKGLVRSKAKGEQQFNNLPGVELVVGDMAEVDAFAASLQGCDTVFHTASFFRDNYKGGSHWKELEQINVSGTRRLLEQAYGAGIRRFIHTSSIAVLNGAPGTSIEENCLRADADADDYYRSKILADRVVLSFLESHPQMHACMVLPGWMWGPGDVGPTSSGQLVNDVVQGKLPGLIPGSFSIVDARDVALAHIAAARHGRRGERYLAAGRHMTMRELMPVLGRMAGVKTPARQIPLPFLYTLAAVQEIYARLTGRPILLSMATLRLLVREQDRTRFDHRKSEQELGLSFRALELTIADTVAWYRDHGWFEKGSRL
soluble on expression in E. coli: not soluble

MPEHLNARVEACYRQAEHFFQRSFPRPTVSFRLRGQKAGVAHLDENLLRFNPQLYRENREHFLEQTVAHEVAHLIAHQLFGPRIRPHGEEWQLIMRGIYGLPPDRCHTYAVKRRATTRYLYRCHCPEHNDFPFSPQRHTLVAKGRRYYCRRCKATLVFTGEVLRELEHHHHHH
soluble on expression in E. coli: soluble

MGSDKIHHHHHHAATHAKTTKTVKTTGGAKTKAAKAKAIKSTSTHIKLQGASNARDLGGYVNRHGQKIKAHRLIRANSLSHLTKADQTKLVKTYHVATDVDLRTTTEQKMSPDVHMAGVKLVKANVFKSFGAFPDFSKKGAGAKMMEKTYHDAVTTAQGRKAYKSLFHQLLINPKGKAVLWHCSAGKDRAGMGTALVLSALKFDKKAIAQDYLKSNTYLAQTNKENLQKMEAGWKAQGKEVTPIVVENFRAQNAVKMAYLNTMYKAIDAKYGNMDNFLHKGLGLSNTQLKQLQANYLTSAK
soluble on expression in E. coli: not soluble

GMKLQTTIQHEPKDGSGFDRGLREFFEYRDTGVNEATGGMFGAHVIRAIPGKEAKPTWHTHTVGFQLFYVLRGWVEFEYEDIGAVMLEAGGSAFQPPGVRHRELRHSDDLEVLEIVSPAGFATSVVDLEEARKP
soluble on expression in E. coli: soluble

GSHMKNSVSVDLPGEMKVLVSKEKNKDGKYDLIATVDKLELKGTSDKNNGSGVLEGVKADKSKVKLTISDDLGQTTLEVFKEDGKTLVSKKVTSKDKSSTEEKFNEKGELSEKKITRADKSSTEEKFNEKGELSEKKITRADKSSTEEKFNEKGELSEKKITRADKSSTEEKFNEKGELSEKKITRADKSSTEEKFNEKGELSEKKITRADKSSTEEKFNEKGEVSEKIITRADGTRLEYTGIKSDGSGKAKEVLKGYVLEGTLTAEKTTLVVKEGTVTLSKNISKSGEVSVELNDTDSSAATKKTAAWNSGTSTLTITVNSKKTKDLVFTKENTITVQQYDSNGTKLEGSAVEITKLDEIKNALK
soluble on expression in E. coli: soluble

MGSDKIHHHHHHENLYFQGMTKAIQSSVQVGELATGQALTVPIYSFMGSENSAPSVYIQANVHGAEVQGNAVIYQLMTLLEGYQVLGDITLAPLANPLGINQKSGEFTLGRFDPITGVNWNREYFDHNVDIQNWYAEHQHLTNSELFCAYRSMLVETCQARLTHSFGISTGHRLAVNLQAMAHQADIVLDLHTGPKSCKHLYCPEYDIDAARFFSIPYTLIIPNSFGGAMDEATFCPWWQLTEYATSQGREFSVPVSAFTLELASQERIDLADALEDAKGILAYLSHRGVIAEKVNPASMERFGCYLKDYKKFHAPKAGLIEYCASVGEPLTAGKPLVNILRIDLYGSEQAYQAISLPMDCVPILHFASASVLQGTELYKVMTNVFPLQPS
soluble on expression in E. coli: soluble

DPAGLLDLRQGMFAQLVAQNVLLIDGPLSWYSDPGLAGVSLTGGLSYKEDTKELVVAKAGVYYVFFQMELRRVVAGEGSGSVSLALHLMPLRSAAGAAALALTVDLPPASSEARNSAFGFQGRLLHLSAGQRLGVHLHTEARARHAWQLTQGATVLGLFRVTPEIPA
soluble on expression in E. coli: soluble

MTSDNKQEYTIHIFGQDITSQDGLFRLDEIRRVGIQIGKVEDNRSTEVARFMRTKAGRSLTNPENGFVKKINMGHLGTSWLADPVAAIEFGRWLDLGYGLAVTRAFVSMTSSATVQSAVASAEDIKPETKEFIQRHGTGLYIAGREVSQAEYSDYQAVTAGRCEWR
soluble on expression in E. coli: not soluble

STAGKVIKCKAAVLWELKKPFSIEEVEVAPPKAHEVRIKMVAAGICRSDEHVVSGNLVTPLPVILGHEAAGIVESVGEGVTTVKPGDKVIPLFTPQCGKCRICKNPESNYCLKNDLGNPRGTLQDGTRRFTCSGKPIHHFVGVSTFSQYTVVDENAVAKIDAASPLEKVCLIGCGFSTGYGSAVKVAKVTPGSTCAVFGLGGVGLSVVMGCKAAGAARIIAVDINKDKFAKAKELGATECINPQDYKKPIQEVLKEMTDGGVDFSFEVIGQLDTMMASLLCCHEACGTSVIVGVPPDSQNLSINPMLLLTGRTWKGAIFGGFKSKESVPKLVADFMAKKFSLDALITNVLPFEKINEGFDLLRSGKSIRTVLTF
soluble on expression in E. coli: soluble

MIIQNEFNLYPSNMLPERFCYPEKYVRISNDTSLIPYIQPHNFHWWFENYGTEGAEVAYIFRNSILPDLNLIPFASNGEWEAYFDGNDVTGNSRVIVINLDNIENHEFFNSFEDWLELAIKDTW
soluble on expression in E. coli: not soluble

Reference: the DeepSol protein solubility set
